Laboratory results: publication PMC7001585 (Proteins, 2017)

Target: the molecule itself
Experiment: crystal structure

B1: CepR2 ligand binding domain (CepR2-LBD, 1-170) (domain or fragment)
chain: SNAMDLTILHDCFDALQRAPTAEAAFPPIAAAAAALGFRYCVYGLRRTLPLARPDMQIVGNHPREWEHRYVKFGYVTIDPIIKRVASQPRPVVWNAFDEPGDTAFWHDAACFGMRYGWSHGGYDRAGNLGVLTLVRDTTPLDADEISRLRAPCASLSHAAHAYLMPRLADPIA
modifications: selenomethionine (SeMet-substituted protein; SeMet53 named)
  stoichiometry N: 2
